Test results reported in US20030139361A1, “Drug for gene therapy” (priority 2000, published 2003).

How the values were obtained:
[1] = test system: spleen cells derived from PVG rat and mitomycin-treated DA rat; test: Lymphocyte mixed culture test (BrdU incorporation); type: cell-based; settings: 4 days culture, BrdU 10 μM for last 16 hours; FIG. 2
Protocol: To study the immunosuppressive activity of the human IDO protein prepared in Example 10, a lymphocyte mixed culture test was carried out. The spleen cells derived from a non-treated PVG rat and the spleen cells derived from a DA rat treated with 25 μg/ml of mitomycin (SIGMA-Aldrich Corporation) were seeded on a U bottom 96-well plate (NUNC Inc.) at 5×10^4/well and at 8×10^6/well, respectively. The IDO protein was then added and culturing was done for 4 days. Sixteen hours before the finish of culturing 5-bromo-2′deoxyuridine (BrdU) was added at a final concentration of 10 μM. The amount of BrdU incorporated into the intracellular DNA was quantified using a BrdU Labeling & Detection Kit III (Roche Diagnostics Inc.).

[2] = test system: liver graft, DA rat to LEW rat (acute rejection); test: Immunosuppressive activity of the IDO protein using acute rejection model (sympatric liver transplantation, DA rat to LEW rat); type: in vivo; settings: for average days of take (survival): consecutive days through the tail vein after liver transplantation, N = 6
Protocol: As for the animals, male LEW and DA rats (200-350 g) were used. In the administration of the aforementioned gene therapeutic agents, immediately after Ringer's Solution (Fuso Pharmaceutical Co. Ltd.) was used in the operation and was allowed to perfuse the portal veins and the liver, the respective agents were infused from the portal veins into the liver at a speed of 5 ml/min. After allowing to stand in the culture solution for 30 minutes, the liver into which the gene had been transferred was grafted to the LEW rat.
A model similar to that in Example 2 was used to judge the therapeutic effect of the IDO protein prepared in Example 5. The IDO protein was administered consecutive days through the tail vein immediately after the liver transplantation at a dosage of 300 μg/rat.

B1: IDO protein: Recombinant murine indoleamine 2,3-dioxygenase protein prepared in Example 5 from E. coli (protein, UniProt P28776 1-407, looked up)
Indoleamine 2,3-dioxygenase 1: MALSKISPTEGSRRILEDHHIDEDVGFALPHPLVELPDAYSPWVLVARNLPVLIENGQLREEVEKLPTLSTDGLRGHRLQRLAHLALGYITMAYVWNRGDDDVRKVLPRNIAVPYCELSEKLGLPPILSYADCVLANWKKKDPNGPMTYENMDILFSFPGGDCDKGFFLVSLLVEIAASPAIKAIPTVSSAVERQDLKALEKALHDIATSLEKAKEIFKRMRDFVDPDTFFHVLRIYLSGWKCSSKLPEGLLYEGVWDTPKMFSGGSAGQSSIFQSLDVLLGIKHEAGKESPAEFLQEMREYMPPAHRNFLFFLESAPPVREFVISRHNEDLTKAYNECVNGLVSVRKFHLAIVDTYIMKPSKKKPTDGDKSEEPSNVESRGTGGTNPMTFLRSVKDTTEKALLSWP
modifications: recombinant, E. coli
For B1, the “immunosuppressive activity (amount of BrdU incorporated into intracellular DNA)” value [1] was “immunosuppressive effect was observed”, the “average days of take (survival)” value ([2]; 50 μg/rat) was 10.6 days and the “average days of take (survival)” value ([2]; 300 μg/rat) was over 30 days. For the same molecule, the “days of take of the liver graft (in words)” value ([2]; 300 μg/rat, tail vein, consecutive days) was “marked increase”.
